# Results taken from the supplement of paper PMC12042874.
# ± gives the uncertainty stated by the source.
# Experiment: amyloid nucleation score (Sup35N fusion, yeast selection) (log enrichment); library NNK2; higher = more nucleation; inactive = no reads after selection
# How it was run: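 Output and input plasmid inserts were sequenced by Illumina after psi-negative yeast carrying Sup35N fused to peptides of 20 random codons had been induced 24 hours with 100 μM copper sulfate and grown 7 days at 30°C on medium lacking adenine and uracil. The nucleation score is the DiMSum log enrichment of output over input reads, centred on the mode score of non-aggregating sequences. Sequences with under 100 input reads were excluded.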
row,Substance,amyloid nucleation score
1,SFRKILESWKDAYLYDPALT,0.113 ± 1.1
2,SSVAKVRGSVLYMGRSGWVG,0.138 ± 0.8
3,CGLWASNSSTFRDFESNESN,-0.51 ± 0.63
4,FSLPFC,0.246 ± 0.49
5,VDAFLWHVDVHMFIEVGVRW,-0.024 ± 0.65
6,VMWLSVRL,0.535 ± 0.44
7,GSFLFYCILPIYFLGAWMRV,-1.4 ± 0.78
8,YWFPEASMFLIPL,-1.49 ± 1.1
9,NCYMSVLILVRLLGSHLKQS,-0.249 ± 1.1
10,CWFHGLWIRGVDNSSVYWMD,-0.466 ± 0.65
11,VIKMSVNNVELVGMDHYSCV,0.606 ± 0.23
12,GCWKD,1.22 ± 0.36
13,SRFLLKDKSNTSGVMQLGMW,-0.374 ± 0.41
14,GFDGLRVLLNEHNVIAK,0.771 ± 0.47
15,RIDVAI,-0.457 ± 0.76
16,CQMYHKCALVLLAGHQLRRR,1.19 ± 0.33
17,ELRISPPDNRLWDPQ,0.183 ± 1
18,SRAKNLHSFKSNMCDAFSYN,inactive
19,SCLLVEQLP,0.864 ± 0.26
20,RRAWGFLVMRVGTDPMMTGI,0.196 ± 0.37
21,AVFTIFALVRS,1.08 ± 0.51
22,IVFFTECSYSLFRWIMNNVW,-1.4 ± 0.39

row,Substance,amyloid nucleation score
1,ISCHLFLLALYGWNKCVCSV,0.114 ± 0.62
2,WKTWSPKYWGSFVR,-0.283 ± 0.46
3,GRSGVLLQRGGFVKNSRCEK,0.026 ± 1.1
4,SVDIHGTFWHILYSIAPDQV,1.75 ± 0.23
5,ALFIEISPLTINLFTNAKSL,-1.06 ± 0.76
6,IMYPLRNLAQDFLGDSVSYL,-1.07 ± 0.62
7,GSQVLCGLRLPARGFWSYIM,0.254 ± 0.3
8,WSWRGS,0.629 ± 0.52
9,EKNTMDF,1.64 ± 0.19
10,HIFFTDKFGGYVFLYPDFVA,inactive
11,MFWKTWGVNCQATNRMEIRL,2.99 ± 0.055
12,WQGEPHPIHFMLSFVLMGW,0.957 ± 0.21
13,SHMIRYRSVDRVHGLFHPQS,-0.232 ± 0.37
14,VMSDGMYTGKAYSLVLDMRI,inactive
15,TVRFVRFYSPLWLSVTYRLT,0.412 ± 0.55
16,MKRIRLGNQVRCEAANCRGR,1.1 ± 0.24
17,RVYMWLWIGWCRIG,0.58 ± 0.51
18,QIRPLRKRELYSW,2.64 ± 0.066
19,RALLCGSDVSKRNHGRSFVF,0.05 ± 1
20,KLLFCERGKSGSNQSSLTKT,-0.523 ± 0.54
21,VLSNNFWRMSNFWVRMRHTL,-0.25 ± 0.63
22,VSLYRKGSASKEGGLERATD,0.55 ± 0.3

row,Substance,amyloid nucleation score
1,ICMAGEVGKQRGYLDGGMP,0.505 ± 0.54
2,MLSRNNCNALWYSIFS,-1.5 ± 1
3,SFPVWPVMYGGNCFSCFSLG,9.094 ± 0.063
4,QCVGRASCANSVALYLCSVA,0.06 ± 0.35
5,LTTSIL,-1.06 ± 0.39
6,LSLKVKYFQKDTRVGNGEHK,2.15 ± 0.076
7,CNCDMLFCTTVSFRVLDTEN,8.295 ± 0.037
8,LSRKTYWA,0.894 ± 0.43
9,KFFMPTYN,1.58 ± 0.17
10,VWVWCFR,8.331 ± 0.042
11,NEVRYLGTVLACQQRLHTWM,1.06 ± 0.29
12,AGGWVFFQGESSSLSNTSGS,inactive
13,TSFGWSGSCKLMYSMSTSGT,0.636 ± 0.3
14,ACDVDAMFTKMYSIFFR,0.479 ± 0.62
15,LRFPRGLNGNDPGSIAS,-0.085 ± 0.79
16,RTVGLSHIIICN,0.089 ± 0.5
17,KGLASKAHSIGLCT,1.01 ± 0.25
18,KINIKGFSSYAGRYHTRKIW,inactive
19,RALLRFMLWFCEIPD,0.94 ± 0.74
20,FDPLTFFGHRYCMQDMQLSD,-0.027 ± 0.32
21,CTWIYTLTFFARNS,0.01 ± 0.55
22,FVSFSSLTKTLWYRRRRMVR,-1.06 ± 1.1

row,Substance,amyloid nucleation score
1,NLRGETRGVKLCLIWDVGRA,0.078 ± 0.55
2,GSFENSTRTYVSIIRR,4.73 ± 0.045
3,AISRRALKTHHFKWGCNVG,0.266 ± 0.19
4,DLKRLAWMLILSIYNRSTIM,-0.221 ± 1.1
5,PEGPERFVFATWPRMHMPSY,inactive
6,WVLPSLKGCTAVSYIFVFLY,0.398 ± 0.27
7,EYSTFPRRSDRSEIHFSINL,3.47 ± 0.12
8,MHQSQVMSLSDPAAGKSFWV,-0.56 ± 0.79
9,DTGSGAPVIKYCVAVPRSFT,0.306 ± 0.57
10,HESHHSALFDCLGWQVLVWL,6.827 ± 0.049
11,KDWRGMEDFMSVFFRSGLGS,inactive
12,SATARKNILVSLGSVALFDR,-0.82 ± 0.54
13,LCYFCISGDRHSLEVKTLVT,-0.527 ± 0.4
14,SGVLVCVWTRS,-1.24 ± 0.49
15,FSAVHAHQQNLLVVFYTCCA,3.97 ± 0.08
16,VVCFMPSFYAGPKI,5.281 ± 0.041
17,SIVLMCVLMYPPIDVSSWLS,4.415 ± 0.042
18,RNIIFTWGLCC,5.913 ± 0.035
19,HYSIIWTAS,0.233 ± 0.46
